These results are taken from PMC4592070.

This assay concerns the target ErbB1-mCitrine (UniProt P00533). In words: FRET or BRET; confocal time-domain FLIM-FRET in live COS-7 cells at 37°C; donor ErbB1-mCitrine, acceptor an mCherry-labeled PTP1B chimera; cells starved overnight, recorded 2 min before and 14 min after EGF (100 ng/mL).

mCherry-PTP1B^D/A-ER (enzyme) registered an average donor fluorescence lifetime (donor-only control 3.02 ns) of 2.89 ns. Next, mCherry-PTP1B^D/A-OMM (enzyme): 2.96 ns.
